Consider ten molecules from paper PMC3846889, “Interacting Proteins on Human Spermatozoa: Adaptive Evolution of the Binding of Semenogelin I to EPPIN” (PLoS ONE, 2013).

The labels stand for the following.
B10: human recombinant EPPIN (residues P22-P133) (domain or fragment)
chain: not shown
notes: EPPIN, human, residues P22-P133, cloned into pET100/D-TOPO; also called tag-free EPPIN; source: E. coli Rosetta-Gami 2 (DE3), purified under denaturing conditions (Ni-NTA); 6X His-tag removed with enterokinase; not shown: His6, N-terminal, cleaved

In assay [1] the target is B10. The assay can be described thus: AlphaScreen or HTRF; competition: EPPIN (10 nM) and bt-SEMG1^214-42 (1 nM) with increasing SEMG1 competitor (10 pM - 8 µM), 30 µl, 15 µg/ml beads; as in ref. 23. As to conditions: both partners purified. On the technique in general: Bead proximity is the source of the signal in Alpha formats.
Assay [2] has as its target B10. The assay can be described thus: cell-based or functional assay.
Assay [3] addresses B10. Kind of assay: AlphaScreen or HTRF; direct binding, concentration-response: EPPIN (29 nM) on anti-EPPIN Q20E antibody (2 nM) and Protein A acceptor beads; His-tagged SEMG1 construct (0.04-7.5 µM) on Ni-NTA-chelate donor beads; 10 µg/ml beads, 30 µl; EC50 from the specific signal after 16 h. As to conditions: both partners purified.
For assay [4], the target named is T1, biotinylated SEMG1^214-42 (human, UniProt P04279-1 26-281, biotin (biotinylated as in ref. 23; sites not stated)).
T1 construct: semenogelin I (SEMG1), human, residues G26-R281; The same construct as m2, biotinylated; also called bt-SEMG1; source: E. coli BL21 Star (DE3), purified under denaturing conditions (Ni-NTA), then biotinylated
T1 sequence (looked up): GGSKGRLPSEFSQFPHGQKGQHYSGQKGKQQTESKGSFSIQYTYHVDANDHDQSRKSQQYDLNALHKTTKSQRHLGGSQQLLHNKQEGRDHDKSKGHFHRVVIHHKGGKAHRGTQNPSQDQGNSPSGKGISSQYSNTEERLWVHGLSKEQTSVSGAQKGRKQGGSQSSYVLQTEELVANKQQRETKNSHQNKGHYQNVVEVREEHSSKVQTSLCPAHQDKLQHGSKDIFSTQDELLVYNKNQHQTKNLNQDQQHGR
The assay can be described thus: AlphaScreen or HTRF; competition: EPPIN (10 nM) and bt-SEMG1^214-42 (1 nM) with increasing SEMG1 competitor (10 pM - 8 µM), 30 µl, 15 µg/ml beads; as in ref. 23. As to conditions: both partners purified.

B1: recombinant SEMG1^74-8 (residues R165-Q247) (domain or fragment, human, UniProt P04279-1 165-247, looked up)
chain: RLWVHGLSKEQTSVSGAQKGRKQGGSQSSYVLQTEELVANKQQRETKNSHQNKGHYQNVVEVREEHSSKVQTSLCPAHQDKLQ
notes: semenogelin I (SEMG1), human, residues R165-Q247, in pET100/D-TOPO; also called fragment 74-8; source: E. coli BL21 Star (DE3), purified under denaturing conditions (Ni-NTA); not shown: His6, N-terminal, kept
A word on the IC50: it is the concentration needed to halve the response being measured. Consider B1, for which, in assay [1], the IC50 was found to be 385 nM.

B2: recombinant SEMG1^74-42 (residues R165-R281) (domain or fragment, human, UniProt P04279-1 165-281, looked up)
chain: RLWVHGLSKEQTSVSGAQKGRKQGGSQSSYVLQTEELVANKQQRETKNSHQNKGHYQNVVEVREEHSSKVQTSLCPAHQDKLQHGSKDIFSTQDELLVYNKNQHQTKNLNQDQQHGR
notes: semenogelin I (SEMG1), human, residues R165-R281, in pET100/D-TOPO; source: E. coli BL21 Star (DE3), purified under denaturing conditions (Ni-NTA); not shown: His6, N-terminal, kept
For B2, the “inhibition of human sperm motility (normalized iRMI by CASA), concentration-response, EC50” value in assay [2] turned out to be 3560 nM. Besides, the IC50 in assay [1] was 124 nM.

B3: human recombinant SEMG1^214-42 (wild-type, residues G26-R281) (domain or fragment, UniProt P04279-1 26-281, looked up)
chain: GGSKGRLPSEFSQFPHGQKGQHYSGQKGKQQTESKGSFSIQYTYHVDANDHDQSRKSQQYDLNALHKTTKSQRHLGGSQQLLHNKQEGRDHDKSKGHFHRVVIHHKGGKAHRGTQNPSQDQGNSPSGKGISSQYSNTEERLWVHGLSKEQTSVSGAQKGRKQGGSQSSYVLQTEELVANKQQRETKNSHQNKGHYQNVVEVREEHSSKVQTSLCPAHQDKLQHGSKDIFSTQDELLVYNKNQHQTKNLNQDQQHGR
notes: semenogelin I (SEMG1), human, residues G26-R281, cloned into pET100/D-TOPO; also called his-SEMG1; semenogelin I fragment G26-R281; source: E. coli BL21 Star (DE3), purified under denaturing conditions (Ni-NTA); not shown: His6, N-terminal, kept
In general, EC50 refers to the concentration that produces a half-maximal response. With B3, the “inhibition of human sperm motility (normalized iRMI by CASA), concentration-response, EC50” value in assay [2] turned out to be 1690 nM. In addition, the EC50 in assay [3] is 23.1 nM. Further, in assay [1], the IC50 worked out at 8.1 nM.

B4: C239D-SEMG1^214-42 (domain or fragment, human, UniProt P04279-1 26-281, looked up)
chain: GGSKGRLPSEFSQFPHGQKGQHYSGQKGKQQTESKGSFSIQYTYHVDANDHDQSRKSQQYDLNALHKTTKSQRHLGGSQQLLHNKQEGRDHDKSKGHFHRVVIHHKGGKAHRGTQNPSQDQGNSPSGKGISSQYSNTEERLWVHGLSKEQTSVSGAQKGRKQGGSQSSYVLQTEELVANKQQRETKNSHQNKGHYQNVVEVREEHSSKVQTSLDPAHQDKLQHGSKDIFSTQDELLVYNKNQHQTKNLNQDQQHGR
notes: semenogelin I (SEMG1), human, residues G26-R281 with C239D; Point mutant of m2; source: E. coli BL21 Star (DE3), purified under denaturing conditions (Ni-NTA); not shown: His6, N-terminal, kept
Regarding B4, in assay [3], the EC50 turned out to be 96.1 nM.

B5: C239R-SEMG1^214-42 (domain or fragment, human, UniProt P04279-1 26-281, looked up)
chain: GGSKGRLPSEFSQFPHGQKGQHYSGQKGKQQTESKGSFSIQYTYHVDANDHDQSRKSQQYDLNALHKTTKSQRHLGGSQQLLHNKQEGRDHDKSKGHFHRVVIHHKGGKAHRGTQNPSQDQGNSPSGKGISSQYSNTEERLWVHGLSKEQTSVSGAQKGRKQGGSQSSYVLQTEELVANKQQRETKNSHQNKGHYQNVVEVREEHSSKVQTSLRPAHQDKLQHGSKDIFSTQDELLVYNKNQHQTKNLNQDQQHGR
notes: semenogelin I (SEMG1), human, residues G26-R281 with C239R (Arg239 is the residue of Macaca mulatta and Papio anubis); Point mutant of m2; source: E. coli BL21 Star (DE3), purified under denaturing conditions (Ni-NTA); not shown: His6, N-terminal, kept
For the molecule B5, in assay [2], the “inhibition of human sperm motility (normalized iRMI by CASA), concentration-response, EC50” value was 2210 nM. For the same molecule, the EC50 in assay [3] worked out at 461 nM.

B6: C239H-SEMG1^214-42 (domain or fragment, human, UniProt P04279-1 26-281, looked up)
chain: GGSKGRLPSEFSQFPHGQKGQHYSGQKGKQQTESKGSFSIQYTYHVDANDHDQSRKSQQYDLNALHKTTKSQRHLGGSQQLLHNKQEGRDHDKSKGHFHRVVIHHKGGKAHRGTQNPSQDQGNSPSGKGISSQYSNTEERLWVHGLSKEQTSVSGAQKGRKQGGSQSSYVLQTEELVANKQQRETKNSHQNKGHYQNVVEVREEHSSKVQTSLHPAHQDKLQHGSKDIFSTQDELLVYNKNQHQTKNLNQDQQHGR
notes: semenogelin I (SEMG1), human, residues G26-R281 with C239H (His239 is the Gorilla residue); Point mutant of m2; source: E. coli BL21 Star (DE3), purified under denaturing conditions (Ni-NTA); not shown: His6, N-terminal, kept
Regarding B6, the “inhibition of human sperm motility (normalized iRMI by CASA), concentration-response, EC50” value in assay [2] came out at 1080 nM. Further, the EC50 in assay [3] came to 167 nM.

B7: C239G-SEMG1^214-42 (domain or fragment, human, UniProt P04279-1 26-281, looked up)
chain: GGSKGRLPSEFSQFPHGQKGQHYSGQKGKQQTESKGSFSIQYTYHVDANDHDQSRKSQQYDLNALHKTTKSQRHLGGSQQLLHNKQEGRDHDKSKGHFHRVVIHHKGGKAHRGTQNPSQDQGNSPSGKGISSQYSNTEERLWVHGLSKEQTSVSGAQKGRKQGGSQSSYVLQTEELVANKQQRETKNSHQNKGHYQNVVEVREEHSSKVQTSLGPAHQDKLQHGSKDIFSTQDELLVYNKNQHQTKNLNQDQQHGR
notes: semenogelin I (SEMG1), human, residues G26-R281 with C239G; Point mutant of m2; source: E. coli BL21 Star (DE3), purified under denaturing conditions (Ni-NTA); not shown: His6, N-terminal, kept
For B7, the EC50 in assay [3] came out at 83.3 nM.

B8: C239S-SEMG1^214-42 (domain or fragment, human, UniProt P04279-1 26-281, looked up)
chain: GGSKGRLPSEFSQFPHGQKGQHYSGQKGKQQTESKGSFSIQYTYHVDANDHDQSRKSQQYDLNALHKTTKSQRHLGGSQQLLHNKQEGRDHDKSKGHFHRVVIHHKGGKAHRGTQNPSQDQGNSPSGKGISSQYSNTEERLWVHGLSKEQTSVSGAQKGRKQGGSQSSYVLQTEELVANKQQRETKNSHQNKGHYQNVVEVREEHSSKVQTSLSPAHQDKLQHGSKDIFSTQDELLVYNKNQHQTKNLNQDQQHGR
notes: semenogelin I (SEMG1), human, residues G26-R281 with C239S; Point mutant of m2; source: E. coli BL21 Star (DE3), purified under denaturing conditions (Ni-NTA); not shown: His6, N-terminal, kept
With B8, in assay [3], the EC50 is 564 nM.

B9: recombinant SEMG1^32-8 (residues Q207-Q247) (domain or fragment, human, UniProt P04279-1 207-247, looked up)
chain: QRETKNSHQNKGHYQNVVEVREEHSSKVQTSLCPAHQDKLQ
Regarding B9, in assay [2], the “inhibition of human sperm motility (normalized iRMI by CASA), concentration-response, EC50” value worked out at 1750 nM.

Take B10: the binding result in assay [4] was “binds”.
